Test results taken from the supplement of paper PMC9112550, “Optimization of the antimicrobial peptide Bac7 by deep mutational scanning” (BMC Biology, 2022).

system: Escherichia coli TOP10; test: shrunken log2 fold change of peptide-encoding DNA abundance (4.5 h post-induction vs induction); higher = less antimicrobial activity (less host growth inhibition); conditions: time post-induction: 4.5 h; library: site-saturation at positions 5, 18, 19, 20
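Also: peptides expressed intracellularly from a pBAD plasmid library in pooled LB shake-flask culture, induced with 0.3% L-arabinose, DNA abundance read by NGS, three biological replicates, DESeq2 with apeglm shrinkage.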

Sequence	shrunken log2 fold change
RRIRRRPPRLPRPRPRPCGPPRP	0.517
RRIRVRPPRLPRPRPRPFDRPRP	0.121
RRIRLRPPRLPRPRPRPVYHPRP	-0.856
RRIRERPPRLPRPRPRPKNHPRP	-0.499
RRIRSRPPRLPRPRPRPMQRPRP	0.281
RRIRYRPPRLPRPRPRPPKWPRP	0.223
RRIRCRPPRLPRPRPRPPEAPRP	0.968
RRIRIRPPRLPRPRPRPTCHPRP	-0.467
RRIRDRPPRLPRPRPRPTYVPRP	-0.0733
RRIRSRPPRLPRPRPRPNMEPRP	-0.154
RRIRCRPPRLPRPRPRPADYPRP	-0.263
RRIRFRPPRLPRPRPRPGICPRP	-0.0925
RRIRGRPPRLPRPRPRPCDHPRP	0.135
RRIRPRPPRLPRPRPRPMAVPRP	0.0404
RRIRPRPPRLPRPRPRPIWDPRP	-0.0628
RRIRMRPPRLPRPRPRPNYFPRP	0.0511
RRIRTRPPRLPRPRPRPLPVPRP	-0.103
RRIRYRPPRLPRPRPRPTVYPRP	-0.686
RRIRQRPPRLPRPRPRPWSYPRP	-0.106
RRIRRRPPRLPRPRPRPACNPRP	0.654
RRIRHRPPRLPRPRPRPAMEPRP	0.0691
RRIRWRPPRLPRPRPRPHTGPRP	-0.233
RRIRGRPPRLPRPRPRPIVGPRP	0.00341
RRIRVRPPRLPRPRPRPSFIPRP	-0.749
RRIRARPPRLPRPRPRPQWCPRP	-0.0868

Sequence	shrunken log2 fold change
RRIRQRPPRLPRPRPRPPTWPRP	-0.0557
RRIRFRPPRLPRPRPRPVNGPRP	-0.746
RRIRIRPPRLPRPRPRPECKPRP	-0.259
RRIRVRPPRLPRPRPRPGKPPRP	0.0464
RRIRMRPPRLPRPRPRPMMIPRP	-0.025
RRIRTRPPRLPRPRPRPPTDPRP	0.0638
RRIRARPPRLPRPRPRPHERPRP	0.0956
RRIRHRPPRLPRPRPRPQPYPRP	-1.53
RRIRMRPPRLPRPRPRPQEHPRP	0.0123
RRIRTRPPRLPRPRPRPFIPPRP	-0.312
RRIRVRPPRLPRPRPRPHRFPRP	0.0259
RRIRRRPPRLPRPRPRPMFLPRP	0.0789
RRIRCRPPRLPRPRPRPDTRPRP	-0.0118
RRIRRRPPRLPRPRPRPGMMPRP	0.257
RRIRFRPPRLPRPRPRPALVPRP	0.273
RRIRERPPRLPRPRPRPRYWPRP	0.185
RRIRFRPPRLPRPRPRPVRMPRP	0.0345
RRIRSRPPRLPRPRPRPHKSPRP	-0.414
RRIRCRPPRLPRPRPRPSTSPRP	-0.282
RRIRVRPPRLPRPRPRPPTEPRP	0.273
RRIRIRPPRLPRPRPRPKALPRP	-0.0211
RRIRMRPPRLPRPRPRPWPGPRP	0.528
RRIRWRPPRLPRPRPRPKESPRP	0.293
RRIRCRPPRLPRPRPRPIMEPRP	-0.231
RRIRPRPPRLPRPRPRPRPVPRP	0.528

Sequence	shrunken log2 fold change
RRIRMRPPRLPRPRPRPRHDPRP	0.659
RRIRRRPPRLPRPRPRPKWVPRP	0.242
RRIRDRPPRLPRPRPRPPMAPRP	-0.0543
RRIRCRPPRLPRPRPRPFYFPRP	-0.593
RRIRQRPPRLPRPRPRPWMHPRP	0.0573
RRIRTRPPRLPRPRPRPWIHPRP	-0.636
RRIRARPPRLPRPRPRPSERPRP	-0.132
RRIRERPPRLPRPRPRPIGMPRP	0.115
RRIRWRPPRLPRPRPRPTHKPRP	0.396
RRIRIRPPRLPRPRPRPYLIPRP	-1.6
RRIRMRPPRLPRPRPRPRRFPRP	0.339
RRIRIRPPRLPRPRPRPILDPRP	-0.797
RRIRIRPPRLPRPRPRPDYAPRP	-0.154
RRIRQRPPRLPRPRPRPSRYPRP	-0.00452
RRIRIRPPRLPRPRPRPVKYPRP	-9.3e-05
RRIRFRPPRLPRPRPRPRHAPRP	0.389
RRIRMRPPRLPRPRPRPFSAPRP	0.138
RRIRDRPPRLPRPRPRPPIYPRP	-0.242
RRIRQRPPRLPRPRPRPKEQPRP	-0.0394
RRIRYRPPRLPRPRPRPRSSPRP	0.069
RRIRYRPPRLPRPRPRPMCTPRP	0.00658
RRIRVRPPRLPRPRPRPRCYPRP	-0.31
RRIRIRPPRLPRPRPRPDCFPRP	-0.211
RRIRGRPPRLPRPRPRPRISPRP	0.353
RRIRCRPPRLPRPRPRPFWGPRP	0.0697

Sequence	shrunken log2 fold change
RRIRLRPPRLPRPRPRPHCFPRP	-0.0782
RRIRGRPPRLPRPRPRPKYLPRP	0.32
RRIRGRPPRLPRPRPRPMVTPRP	1.29
RRIRMRPPRLPRPRPRPFYCPRP	-0.118
RRIRERPPRLPRPRPRPTSDPRP	-0.0201
RRIRRRPPRLPRPRPRPDLGPRP	0.104
RRIRHRPPRLPRPRPRPHYDPRP	-0.257
RRIRKRPPRLPRPRPRPGPTPRP	0.65
RRIRERPPRLPRPRPRPVNSPRP	0.0303
RRIRMRPPRLPRPRPRPIFHPRP	-0.00123
RRIRPRPPRLPRPRPRPIAIPRP	0.247
RRIRMRPPRLPRPRPRPRTIPRP	0.229
RRIRNRPPRLPRPRPRPFCFPRP	0.567
RRIRNRPPRLPRPRPRPYNHPRP	-1.85
RRIRWRPPRLPRPRPRPSIVPRP	-0.00221
RRIRPRPPRLPRPRPRPGACPRP	0.35
RRIRERPPRLPRPRPRPTPRPRP	0.669
RRIRVRPPRLPRPRPRPTKMPRP	0.0488
RRIRARPPRLPRPRPRPLWRPRP	0.24
RRIRHRPPRLPRPRPRPRWAPRP	0.315
RRIRFRPPRLPRPRPRPCTKPRP	-0.229
RRIRVRPPRLPRPRPRPRKPPRP	0.0947
RRIRIRPPRLPRPRPRPGRWPRP	0.473
RRIRLRPPRLPRPRPRPFSSPRP	-0.000451
RRIRGRPPRLPRPRPRPMVDPRP	0.0455

Sequence	shrunken log2 fold change
RRIRARPPRLPRPRPRPRRGPRP	0.759
RRIRKRPPRLPRPRPRPDIVPRP	1.54
RRIRQRPPRLPRPRPRPGVYPRP	0.0572
RRIRMRPPRLPRPRPRPKPAPRP	1.55
RRIRQRPPRLPRPRPRPHNVPRP	-0.0684
RRIRKRPPRLPRPRPRPARYPRP	0.513
RRIRTRPPRLPRPRPRPGDWPRP	0.73
RRIRVRPPRLPRPRPRPATMPRP	-0.259
RRIRRRPPRLPRPRPRPWNKPRP	0.0897
RRIRKRPPRLPRPRPRPWPNPRP	0.0221
RRIRVRPPRLPRPRPRPLSRPRP	-0.132
RRIRKRPPRLPRPRPRPVKKPRP	0.505
RRIRYRPPRLPRPRPRPMVIPRP	-0.0231
RRIRARPPRLPRPRPRPYRVPRP	-0.211
RRIRVRPPRLPRPRPRPIQCPRP	0.078
RRIRCRPPRLPRPRPRPVYLPRP	-0.646
RRIRCRPPRLPRPRPRPERVPRP	0.361
RRIRGRPPRLPRPRPRPGFEPRP	0.813
RRIRTRPPRLPRPRPRPSQEPRP	-0.184
RRIRVRPPRLPRPRPRPINVPRP	-0.342
RRIRYRPPRLPRPRPRPTLFPRP	-0.145
RRIRHRPPRLPRPRPRPTKEPRP	-0.0586
RRIRVRPPRLPRPRPRPSNMPRP	-0.124
RRIRERPPRLPRPRPRPQTEPRP	-0.0317
RRIRRRPPRLPRPRPRPCPTPRP	0.288

Sequence	shrunken log2 fold change
RRIRPRPPRLPRPRPRPLITPRP	-0.357
RRIRARPPRLPRPRPRPCLPPRP	0.0185
RRIRSRPPRLPRPRPRPMSPPRP	-0.125
RRIRGRPPRLPRPRPRPVVKPRP	0.246
RRIRCRPPRLPRPRPRPSKEPRP	0.0893
RRIRKRPPRLPRPRPRPYTDPRP	-0.0224
RRIRKRPPRLPRPRPRPHPVPRP	0.185
RRIRFRPPRLPRPRPRPWHSPRP	-0.018
RRIRPRPPRLPRPRPRPDALPRP	0.0315
RRIRNRPPRLPRPRPRPKHFPRP	0.054
RRIRERPPRLPRPRPRPCKSPRP	-0.0225
RRIRERPPRLPRPRPRPMCGPRP	-0.0439
RRIRPRPPRLPRPRPRPKEAPRP	-0.0122
RRIRERPPRLPRPRPRPPLWPRP	0.779
RRIRMRPPRLPRPRPRPRWIPRP	0.00451
RRIRNRPPRLPRPRPRPCSTPRP	-0.194
RRIRKRPPRLPRPRPRPYDSPRP	0.0392
RRIRCRPPRLPRPRPRPGMMPRP	-0.389
RRIRLRPPRLPRPRPRPVQIPRP	0.364
RRIRPRPPRLPRPRPRPESRPRP	0.11
RRIRYRPPRLPRPRPRPYDAPRP	-0.129
RRIRGRPPRLPRPRPRPEVRPRP	0.919
RRIRGRPPRLPRPRPRPPGWPRP	1.04
RRIRVRPPRLPRPRPRPPHMPRP	-0.0804
RRIRVRPPRLPRPRPRPANGPRP	0.136
